Here are results for 1 substance from patent US20240228595A1.

The target in this experiment is SARS-COV-2 Omicron BA.1.1 spike on HIV-1 based pseudovirus (SARS-CoV-2 Omicron BA.1.1) (UniProt P0DTC2). As to the kind of experiment: cell-based or functional assay.

S309 (Sotrovimab) (antibody) displayed a pseudovirus neutralization, IC50 of 0.533 µg/mL.
